Test results published in US12145987B2, “Method for depleting cytotoxic T cells using an anti-LAG-3 antibody composition” (Daiichi Sankyo Company, Limited, priority 2017, dated 2024).

T1: immunoglobulin-like domains of human LAG-3 (Homo sapiens, UniProt P18627)
T1 construct: expressed in transfected cells; host or cells: HEK293T cells, pcDNA3.1 plasmids, transient transfection
T1 sequence (P18627 353-525): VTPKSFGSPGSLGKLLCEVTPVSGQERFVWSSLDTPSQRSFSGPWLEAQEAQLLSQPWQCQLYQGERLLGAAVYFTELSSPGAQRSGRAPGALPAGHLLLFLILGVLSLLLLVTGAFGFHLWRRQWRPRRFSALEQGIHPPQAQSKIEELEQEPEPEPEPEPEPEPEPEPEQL

T2: immunoglobulin-like domains of human LAG-3 (Homo sapiens, UniProt P18627)
T2 construct: expressed in transfected cells; host or cells: HEK293T cells, pcDNA3.1 plasmids, transient transfection
T2 sequence (P18627 263-525): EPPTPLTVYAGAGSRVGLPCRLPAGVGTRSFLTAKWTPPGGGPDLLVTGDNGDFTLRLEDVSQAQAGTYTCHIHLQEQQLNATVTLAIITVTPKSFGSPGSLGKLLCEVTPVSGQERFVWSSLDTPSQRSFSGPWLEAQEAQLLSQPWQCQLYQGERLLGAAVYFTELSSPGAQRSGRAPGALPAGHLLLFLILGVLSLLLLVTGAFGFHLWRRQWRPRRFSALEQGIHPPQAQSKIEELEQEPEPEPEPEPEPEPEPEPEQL

T3: binding of LAG-3 to MHC class II molecules (293T-hLAG-3 cells / Raji cells) (Homo sapiens, UniProt P18627)
T3 construct: expressed in transfected cells; host or cells: 293T cells, transient transfection (Lipofectamine 2000)
T3 sequence (P18627 23-525): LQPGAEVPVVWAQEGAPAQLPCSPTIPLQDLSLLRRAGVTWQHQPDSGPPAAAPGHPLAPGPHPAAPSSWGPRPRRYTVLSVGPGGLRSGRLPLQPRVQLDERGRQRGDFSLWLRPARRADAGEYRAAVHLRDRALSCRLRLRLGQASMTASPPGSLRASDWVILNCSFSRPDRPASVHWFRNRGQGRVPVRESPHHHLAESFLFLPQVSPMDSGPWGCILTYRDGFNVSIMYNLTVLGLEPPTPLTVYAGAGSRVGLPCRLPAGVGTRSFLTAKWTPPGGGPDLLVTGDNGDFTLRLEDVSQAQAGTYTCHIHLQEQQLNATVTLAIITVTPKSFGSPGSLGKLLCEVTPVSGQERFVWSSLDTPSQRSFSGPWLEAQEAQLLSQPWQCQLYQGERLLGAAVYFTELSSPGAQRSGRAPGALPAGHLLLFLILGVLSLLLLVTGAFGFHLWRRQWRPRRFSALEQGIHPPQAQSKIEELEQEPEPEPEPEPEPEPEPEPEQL

B1: rLA204: anti-human LAG-3 rat monoclonal antibody; heavy chain variable region SEQ ID No: 2, light chain variable region SEQ ID No: 4 (antibody, listed as Rattus norvegicus, V domains shown)
VH: EVELVESGGGLVQPGRSMKLSCAASGFTFRTYGMAWVRQAPTKGLEWVASISTGGGSTYYRDSVKGRFTISRDNAKSTLYLQMDSLRSEDTATYYCTTDLINYPGIGGFAFWGQGTLVTVSS
VL: NIVMTQSPKSMSISVGDRVTMNCKASQNVYNNIAWYQQKPGKSPKLLIYYASNRYTGVPDRFTGSGSGTDFTLTIHSVQAEDAAFYYCQRLYNSPPTFGGGTKLELKRA
B2: rLA225: anti-human LAG-3 rat monoclonal antibody; heavy chain variable region SEQ ID No: 10, light chain variable region SEQ ID No: 12 (antibody, listed as Rattus norvegicus, V domains shown)
VH: EVQLVESGGGLVQPGRSMKLSCVASGFTFSNYYMAWVRQAPTKGLEWVASISTGGGNTYYRDSVKGRFTISRDNAKSTLYLQMDSLRSEDTATYYCARPPYGYNYGWFTYWGQGTLVTVSS
VL: DIQMTQSPASLSASLGETVTIECRASEDIHNGLVWYQQKPGKSPQLLIYNANSMHTGVPSRFSGSGSGTQYSLKINSLQSEDVASYFCQQYYNYPRTFGGGTKLELKRA
B3: rLA212: anti-human LAG-3 rat monoclonal antibody; heavy chain variable region SEQ ID No: 6, light chain variable region SEQ ID No: 8 (antibody, listed as Rattus norvegicus, V domains shown)
VH: EVQLVESGGGLVQPGRSLKLSCAASGFTYRSYVMAWVRQAPTRGLEWVASISTGGGNTYYRDSVKGRFTISRDNAKNTLYLQMDSLRSEDTATYYCAEDMSNSGYGLFDYWGQGVMVTVSS
VL: NIVMTQSPKSMSISVGDRVTMNCKAGQNVDNNIAWYQKKPGQSPKLLIYYASNRNTGVPDRFTGGGYGTDFTLTINSVQAEDAAFYYCQRISNSPYTFGAGTELELKRA
B4: rLA869: anti-human LAG-3 rat monoclonal antibody; heavy chain variable region SEQ ID No: 14, light chain variable region SEQ ID No: 16 (antibody, listed as Rattus norvegicus, V domains shown)
VH: EVQLVESGGGLVQPGRSLKLSCAASGFTYRTYVMAWVRQGPTQGLEWVASISTGGVSTYYRDSVKGRFTISRDNAKNTLYLQMDSLRSEDTATYYCAKDMLNGYNSQGLFDYWGQGVMVTVSS
VL: NIVMTQSPKSMSISVGDRVTMNCRASQNVDNTIAWYQQKPGQSPKLLIYFASDRYTGVPDRFTGGGYGTDFTLTINSVQAEDAAFYYCQRIYNSPLTFGSGTKLEIRRA
B5: rLA1264: anti-human LAG-3 rat monoclonal antibody; heavy chain variable region SEQ ID No: 18, light chain variable region SEQ ID No: 20 (antibody, listed as Rattus norvegicus, V domains shown)
VH: EVQLVESGGGLVQPGRSLKLSCAASGFTFSSYYMAWVRQAPTKGLEWVAYISNGGYSTYYRDSVKGRFTISRENAKSTLYLQMDSLRSEDTATYYCTITDHSGYRFTYWGQGTLVTVSS
VL: DIQMTQSPSLLSASVGDRVTLSCKASQSIYNSLAWYQQKLGEAPKLLIYDANSLQTGIPSRFSGSGSGTDFTLTISSLQPEDVATYFCQKYYSGNTFGAGTKLELKRA

Target: T1, immunoglobulin-like domains of human LAG-3
Assay: Identification of epitope: flow cytometry on HEK293T cells expressing human LAG-3 domain deletion constructs
Type: binding
Details: FLAG-tagged 353-525, HEK293T cells, 10 μg/mL
Source text: (§1) Based on the fact that the rat anti-LAG-3 antibodies rLA204, rLA212, rLA225, rLA869, and rLA1264 are antibodies developed using a mutant deficient in the 1st and 2nd domains (which will be hereinafter referred to respectively as domains 1 and 2) from the N terminus out of the four immunoglobulin-like domains present in the extracellular region of LAG-3 as an immunogen, in order to reveal which of the remaining 3rd and 4th domains (which will be hereinafter referred to respectively as domains 3 and 4) from the N terminus these antibodies bind to, binding of the obtained rat anti-LAG-3 antibodies to cells expressing domains 3 and 4, or only domain 4, was investigated by flow cytometry.
(§2) Each expression plasmid (cloned into pcDNA3.1) of either domain 3 and onwards (263-525) or domain 4 and onwards (353-525) of human LAG-3 with a FLAG tag sequence (DYKDDDDK) (SEQ ID NO:87) added to the N terminus was introduced into HEK293T cells using Lipofectamine 2000 (manufactured by Life Technologies Corp.), and the cells were cultured for 1 day and then recovered, to investigate the binding activity of the antibodies by flow cytometry according to the method described in Example 1)-4.
(§3) In addition to the two types of constructs in FIG. 5A, expression plasmids were used of domain 2 and onwards (amino acid positions 173-525 of the human LAG-3 amino acid sequence in SEQ ID No: 86, FIG. 101) of human LAG-3 with a FLAG tag sequence (DYKDDDDK) (SEQ ID NO:87) added to the N terminus and the full length of human LAG-3 (both were constructed using pcDNA3.1; the nucleotide sequence encoding the amino acid sequence of human LAG-3 is described in SEQ ID No: 85, FIG. 100).

| binding to cells expressing the construct containing only domain 4 of human LAG-3 | Molecule |
| --- | --- |
| none of them bound | B1 |
| none of them bound | B2 |
| none of them bound | B3 |

Test system: immunoglobulin-like domains of human LAG-3
Assay: as above
Type: binding
Details: concluded from binding to deletion constructs
Source text: as §1, §2, §3

| Molecule | immunoglobulin-like domain of LAG-3 bound (epitope) |
| --- | --- |
| B1 | domain 3 |
| B4 | domain 3 |
| B2 | domain 3 |
| B5 | domain 3 |
| B3 | domain 3 |

Target: T2, immunoglobulin-like domains of human LAG-3
Assay: as above
Type: binding
Details: FLAG-tagged 263-525, HEK293T cells, 10 μg/mL
Source text: as §1, §2, §3

| binding to cells expressing the construct containing domains 3 and 4 of human LAG-3 | Molecule |
| --- | --- |
| bound | B1 |
| bound | B2 |
| bound | B3 |

Target: T3, binding of LAG-3 to MHC class II molecules (293T-hLAG-3 cells / Raji cells)
Assay: 293T-hLAG-3/Raji cell adhesion test
Type: cell-based
Details: 10 μg/mL
Source text: In the LAG-3/MHC class II binding test according to Example 2)-3, the binding of the secondary antibody Anti-Human IgG PE conjugate for detecting binding of LAG-3-Fc to Raji cells could be inhibited by steric hindrance caused by binding of the anti-LAG-3 antibody to LAG-3-Fc, and thus the possibility of apparently showing a low fluorescence intensity cannot be completely excluded, despite the antibody not actually directly inhibiting the binding of LAG-3/MHC class II. Therefore, as an evaluation system without using a secondary antibody for detection, the following 293T-hLAG-3/Raji cell adhesion test system was constructed to evaluate the antibody.
Human LAG-3 expression plasmid pcDNA3.1/hLAG-3 was introduced into 293T cells using Lipofectamine 2000 (manufactured by Life Technologies Corp.), and the cells were inoculated onto a BioCoat poly-D-lysine-coated 96-well microplate (manufactured by Becton, Dickinson and Company) and cultured overnight. Meanwhile, Raji cells were labeled in a medium (RPMI1640 containing 10% FBS) with fluorescent dye BCECF-AM (manufactured by DOJINDO LABORATORIES, used at 10 μM) at 37° C. for 1 hour, followed by washing and then suspending in a medium to 1.6×10^6 cells/mL. After the transfection, the medium of the cells (293T-hLAG-3 cells) cultured overnight was removed, and 50 μL/well of a medium and 25 μL/well of an antibody solution were added thereto, followed by pre-incubation at 37° C. for 30 minutes. Thereafter, 25 μL/well of the BCECF-AM labeled Raji cells was added thereto, followed by centrifugation at 900 rpm for 30 seconds and incubation at 37° C. for 1 hour. After the reaction, the well was washed with medium two to three times to remove nonadherent cells, and the cells were lysed in 100 µL/well of a Tris buffer (25 mM, pH 8.0) containing 0.1% NP-40, to measure the fluorescence intensity of the well with a plate reader (ENVISION: manufactured by PerkinElmer Inc). The percentage of inhibition was calculated by the following formula.
Percentage of inhibition (%)=100−(A−B)/(C−B)×100 • A: Fluorescence intensity of each sample well • B: Fluorescence intensity of background
When adding the Raji cells and the antibody, a medium was added thereto. Except for that, the same operation as in the sample well was performed. • C: Fluorescence intensity of maximum binding
When adding the antibody, a medium was added thereto.

| inhibitory activity in the 293T-hLAG-3/Raji cell adhesion test | Molecule |
| --- | --- |
| almost no inhibitory activity | B1 |
| almost no inhibitory activity | B4 |
| almost no inhibitory activity | B2 |
| almost no inhibitory activity | B5 |
| almost no inhibitory activity | B3 |
